{"source": "patent US20140243502A1", "key": {"[1]": {"target": "GP IIb/IIIa in its activated, fibrinogen-bound state on activated mouse platelets (mouse) (UniProt Q9QUM0)", "sequence (Q9QUM0 32-1033, chain 1 of 2)": "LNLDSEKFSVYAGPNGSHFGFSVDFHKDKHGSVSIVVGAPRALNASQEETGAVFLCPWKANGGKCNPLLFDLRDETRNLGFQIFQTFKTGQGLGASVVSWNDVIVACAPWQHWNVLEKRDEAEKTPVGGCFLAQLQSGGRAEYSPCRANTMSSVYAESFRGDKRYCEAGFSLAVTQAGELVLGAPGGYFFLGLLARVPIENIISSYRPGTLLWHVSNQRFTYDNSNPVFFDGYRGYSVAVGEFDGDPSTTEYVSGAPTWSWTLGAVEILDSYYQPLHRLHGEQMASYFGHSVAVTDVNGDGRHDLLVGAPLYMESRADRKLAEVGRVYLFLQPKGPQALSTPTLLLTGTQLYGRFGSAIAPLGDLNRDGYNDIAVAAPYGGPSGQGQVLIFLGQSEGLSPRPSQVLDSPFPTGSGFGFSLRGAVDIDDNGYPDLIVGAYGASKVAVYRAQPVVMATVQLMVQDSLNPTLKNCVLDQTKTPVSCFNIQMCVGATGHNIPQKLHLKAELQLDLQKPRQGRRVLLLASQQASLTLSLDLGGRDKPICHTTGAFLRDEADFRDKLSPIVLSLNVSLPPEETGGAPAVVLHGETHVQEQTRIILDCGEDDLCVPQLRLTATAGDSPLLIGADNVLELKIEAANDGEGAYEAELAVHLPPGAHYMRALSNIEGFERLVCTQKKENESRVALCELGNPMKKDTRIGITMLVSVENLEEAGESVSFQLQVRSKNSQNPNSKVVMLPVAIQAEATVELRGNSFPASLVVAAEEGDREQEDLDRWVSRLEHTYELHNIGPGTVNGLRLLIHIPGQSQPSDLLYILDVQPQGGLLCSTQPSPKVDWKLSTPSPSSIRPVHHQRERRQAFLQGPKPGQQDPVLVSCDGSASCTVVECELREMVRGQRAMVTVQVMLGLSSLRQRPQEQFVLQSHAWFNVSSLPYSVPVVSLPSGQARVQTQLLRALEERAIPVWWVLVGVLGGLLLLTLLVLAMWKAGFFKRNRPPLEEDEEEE", "sequence (O54890 26-787, chain 2 of 2, further chain)": "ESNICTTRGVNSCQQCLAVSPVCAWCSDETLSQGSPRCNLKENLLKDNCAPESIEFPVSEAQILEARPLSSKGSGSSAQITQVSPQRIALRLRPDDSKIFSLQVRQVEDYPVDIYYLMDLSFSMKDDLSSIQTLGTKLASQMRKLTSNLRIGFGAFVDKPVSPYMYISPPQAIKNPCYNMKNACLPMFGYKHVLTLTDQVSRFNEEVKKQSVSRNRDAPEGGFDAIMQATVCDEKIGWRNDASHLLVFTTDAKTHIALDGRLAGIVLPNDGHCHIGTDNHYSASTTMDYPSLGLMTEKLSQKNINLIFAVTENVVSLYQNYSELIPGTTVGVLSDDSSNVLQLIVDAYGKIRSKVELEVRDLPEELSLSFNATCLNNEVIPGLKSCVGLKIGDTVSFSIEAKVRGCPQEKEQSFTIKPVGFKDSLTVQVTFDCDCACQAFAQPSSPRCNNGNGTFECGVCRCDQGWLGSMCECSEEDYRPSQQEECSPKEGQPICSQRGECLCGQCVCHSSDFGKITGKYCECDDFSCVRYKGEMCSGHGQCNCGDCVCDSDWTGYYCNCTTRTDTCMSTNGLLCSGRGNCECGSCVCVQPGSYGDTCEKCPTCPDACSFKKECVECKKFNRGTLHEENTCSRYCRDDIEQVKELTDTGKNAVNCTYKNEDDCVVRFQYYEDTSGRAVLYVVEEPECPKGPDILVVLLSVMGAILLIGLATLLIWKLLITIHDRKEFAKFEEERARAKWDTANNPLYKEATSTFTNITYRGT", "experiment": "ex vivo 11.7 T MRI of wire-injured mouse femoral artery after bead perfusion"}, "[2]": {"target": "GP IIb/IIIa in its activated, fibrinogen-bound state on activated mouse platelets (mouse) (UniProt Q9QUM0)", "experiment": "histology of wire-injured mouse femoral artery after bead perfusion, 20-25 sections per animal"}}}
{"substance": "Control-MPIO (irrelevant single-chain antibody conjugated to 1 µm iron oxide microparticles) (scFv)", "values": [{"measurement": "luminal areas of low signal (MPIO-induced MRI signal void)", "setting": "[1]", "result": 6.2}, {"measurement": "MPIOs bound per histology section (beads per section)", "setting": "[2]", "result": 0.5}]}
